{
  "source": "paper doi:10.1101/2021.07.09.451512",
  "binders": {"B1": {"name": "Nme1Cas9 (N-terminal 6His-tag) (natural protein)", "chain": "MAAFKPNSINYILGLDIGIASVGWAMVEIDEEENPIRLIDLGVRVFERAEVPKTGDSLAMARRLARSVRRLTRRRAHRLLRTRRLLKREGVLQAANFDENGLIKSLPNTPWQLRAAALDRKLTPLEWSAVLLHLIKHRGYLSQRKNEGETADKELGALLKGVAGNAHALQTGDFRTPAELALNKFEKESGHIRNQRSDYSHTFSRKDLQAELILLFEKQKEFGNPHVSGGLKEGIETLLMTQRPALSGDAVQKMLGHCTFEPAEPKAAKNTYTAERFIWLTKLNNLRILEQGSERPLTDTERATLMDEPYRKSKLTYAQARKLLGLEDTAFFKGLRYGKDNAEASTLMEMKAYHAISRALEKEGLKDKKSPLNLSPELQDEIGTAFSLFKTDEDITGRLKDRIQPEILEALLKHISFDKFVQISLKALRRIVPLMEQGKRYDEACAEIYGDHYGKKNTEEKIYLPPIPADEIRNPVVLRALSQARKVINGVVRRYGSPARIHIETAREVGKSFKDRKEIEKRQEENRKDREKAAAKFREYFPNFVGEPKSKDILKLRLYEQQHGKCLYSGKEINLGRLNEKGYVEIDHALPFSRTWDDSFNNKVLVLGSENQNKGNQTPYEYFNGKDNSREWQEFKARVETSRFPRSKKQRILLQKFDEDGFKERNLNDTRYVNRFLCQFVADRMRLTGKGKKRVFASNGQITNLLRGFWGLRKVRAENDRHHALDAVVVACSTVAMQQKITRFVRYKEMNAFDGKTIDKETGEVLHQKTHFPQPWEFFAQEVMIRVFGKPDGKPEFEEADTLEKLRTLLAEKLSSRPEAVHEYVTPLFVSRAPNRKMSGQGHMETVKSAKRLDEGVSVLRVPLTQLKLKDLEKMVNREREPKLYEALKARLEAHKDDPAKAFAEPFYKYDKAGNRTQQVKAVRVEQVQKTGVWVRNHNGIADNATMVRVDVFEKGDKYYLVPIYSWQVAKGILPDRAVVQGKDEEDWQLIDDSFNFKFSLHPNDLVEVITKKARMFGYFASCHRGTGNINIRIHDLDHKIGKNGILEGIGVKTALSFQKYQIDELGKEIRPCRLKKRPPVR"}},
  "assay_in_all_cases": "fluorescence polarisation",
  "key": {"[1]": {"biological_target": "fluorescein labelled AcrIIC4 F49A (Haemophilus parainfluenzae (prophage))"}, "[2]": {"biological_target": "fluorescein labelled AcrIIC4 R46A (Haemophilus parainfluenzae (prophage))"}, "[3]": {"biological_target": "fluorescein labelled AcrIIC4 (wild type, engineered C-terminal cysteine) (Haemophilus parainfluenzae (prophage))"}, "[4]": {"biological_target": "fluorescein labelled AcrIIC4 K56A (Haemophilus parainfluenzae (prophage))"}, "[5]": {"biological_target": "fluorescein labelled AcrIIC4 (wild type, engineered C-terminal cysteine) (Haemophilus parainfluenzae (prophage))", "remark": "listed apart in the source"}, "[6]": {"biological_target": "fluorescein labelled AcrIIC4 (wild type, engineered C-terminal cysteine) (Haemophilus parainfluenzae (prophage))", "remark": "listed apart in the source"}},
  "note": "Where two headings read alike, the source gives them in different places.",
  "data": [
    {"binder": "B1", "values": [
      {"measurement": "Kd", "setting": "[1]", "result": 15.3, "unit": "nM"},
      {"measurement": "Kd", "setting": "[2]", "result": "> 2500", "unit": "nM"},
      {"measurement": "Kd", "setting": "[3]", "result": 6.6, "unit": "nM"},
      {"measurement": "Kd", "setting": "[4]", "result": 1.4, "unit": "nM"},
      {"measurement": "Kd", "setting": "[5]", "result": 10.2, "unit": "nM"},
      {"measurement": "Kd", "setting": "[6]", "result": 7.1, "unit": "nM"}
    ]}
  ]
}
